Test results reported in US20070243571A1, “Method for Measurement of Activity of Homocysteinethiolactone Hydrolyzing Enzyme” (priority 2004, published 2007).
Read-outs that look alike come from different tables or passages of the source.

Columns and labels:
[1] = Autolysis of the substrate in reagent-blank (purified water as sample); format: physicochemical; details: HTL, MOPS buffer pH 7.8, purified water as sample
Experimental: (§1) Following the above parameters, purified water, 15 μl of a sample and 200 μl of reagent 1(A) or 1(B) or 1(C) or 1(D) was dispensed and mixed, and, after a certain length of time at a constant temperature (37° C., 5 min), 50 μl of reagent 2 was added and mixed to allow reaction to start. When reagent 2 was added to the mixture of the fraction containing serum, plasma, albumin or HDL and reagent 1(A), 1(C) or 1(D), increase in absorbance was detected which was due to the reaction of the SH-group detection reagent with DL-homocysteine, which has a free SH group, formed by hydrolysis of HTL.
As evident from FIG. 2, increase in absorbance is suppressed when calcium ion is blocked by EDTA.
(§2) Following the above parameters, 15 μl of a sample and 200 μl of reagent 1(A) or 1(B) or 1(C) or 1(D) was dispensed and mixed, and, after a certain length of time at a constant temperature (37° C., 5 min), 50 μl of reagent 2 was added and mixed to allow reaction to start. When reagent 2 was added to the mixture of the fraction containing serum, plasma, cholinesterase or HDL and reagent 1(A), increase in absorbance was detected which was due to the reaction of the SH-group detection reagent with 4-mercaptobutyric acid, which has a free SH group, formed by of HTL hydrolyzing enzyme.
As evident from FIG. 4, increase in absorbance is suppressed when calcium ion is not present. […]

[2] = target: T1, Human butyrylcholinesterase (Homo sapiens, UniProt P06276); assay: Hydrolysis of substrate by purified human cholinesterase; format: biochemical; details: 2.0 U/ml human butyrylcholinesterase solution as sample
T1 construct: purchased Boehringer 348643
Experimental: Human butyrylcholinesterase (348643, Boehringer) was dissolved in purified water to prepare a 2.0 U/ml solution.
as §1, §2

HTL hydrolyzing enzyme [3] = assay: Measurement of hydrolyzing enzyme activity for HTL (DTNB rate assay, H-7170 analyzer); format: biochemical, human; details: substrate DL-HTL
Experimental: Hydrolyzing enzyme activity for HTL was measured with purified water and above-mentioned samples.
Reagent 1(A): SH-group detection solution; 0.2 M MOPS buffer containing 0.5 mM CaCl2 and 1.0 mM DTNB (pH 7.8).
Reagent 1(B): SH-group detection solution; 0.2 M MOPS buffer containing 2 mM EDTA and 1.0 mM DTNB (pH 7.8).
Reagent 1(C): SH-group detection solution; 0.2 M MOPS buffer containing 0.5 mM CaCl2, 0.1 mM physostigmine sulfate and 1.0 mM DTNB (pH 7.8).
Reagent 1(D): SH-group detection solution; 0.2 M MOPS buffer containing 0.5 mM CaCl2, 0.1 mM neostigmine bromide and 1.0 mM DTNB (pH 7.8).
Reagent 2: substrate solution; aqueous solution containing 125 mM DL-HTL (Tokyo Chemical Industry Co., Ltd).
For measurement of HTL hydrolyzing enzyme activity, H-7170 automatic analyzer (Hitachi, Ltd.) was used. Parameters for measurement were as follows.
Following the above parameters, purified water, 15 μl of a sample and 200 μl of reagent 1(A) or 1(B) or 1(C) or 1(D) was dispensed and mixed, and, after a certain length of time at a constant temperature (37° C., 5 min), 50 μl of reagent 2 was added and mixed to allow reaction to start.
The activity value of HTL hydrolyzing enzyme in each sample was calculated based on: the change in absorbance per unit of time (1 min) (ΔE) from 2-minute up to 4-minute time points after the addition of the substrate (reagent 2), the molecular extinction coefficient of 5-thio-2-nitrobenzoic acid at the wavelength of 480 nm, ε=2509, and the molecular extinction coefficient of the compound at the wavelength of 546 nm, ε=78.

HTL hydrolyzing enzyme [4] = assay: Measurement of hydrolyzing enzyme activity for TBL (DTNB rate assay, H-7170 analyzer); format: biochemical, human; details: substrate TBL
Experimental: Hydrolyzing enzyme activity for TBL was measured with above-mentioned samples and unprepared serum.
Reagent 1(A): SH-group detection solution; 0.2 M MOPS buffer containing 0.5 mM CaCl2 and 1.0 mM DTNB (pH 7.2).
Reagent 1(B): SH-group detection solution; 0.2 M MOPS buffer containing 2 mM EDTA and 1.0 mM DTNB (pH 7.2).
Reagent 1(C): SH-group detection solution; 0.2 M MOPS buffer containing 0.5 mM CaCl2, 0.1 mM physostigmine sulfate and 1.0 mM DTNB (pH 7.2).
Reagent 1(D): SH-group detection solution; 0.2 M MOPS buffer containing 0.5 mM CaCl2, 0.1 mM neostigmine bromide and 1.0 mM DTNB (pH 7.2).
Reagent 2: substrate solution; aqueous solution containing 125 mM TBL (Aldrich).
For measurement of hydrolyzing enzyme activity TBL, H-7170 automatic analyzer (Hitachi, Ltd.) was used. Parameters for measurement were as follows.
Following the above parameters, 15 μl of a sample and 200 μl of reagent 1(A) or 1(B) or 1(C) or 1(D) was dispensed and mixed, and, after a certain length of time at a constant temperature (37° C., 5 min), 50 μl of reagent 2 was added and mixed to allow reaction to start.
The activity value of HTL hydrolyzing enzyme for TBL in each sample was calculated based on: the change in absorbance per unit of time (1 min) (ΔE) from 2-minute up to 4-minute time points after the addition of the substrate (reagent 2), the molecular extinction coefficient of 5-thio-2-nitrobenzoic acid at the wavelength of 480 nm, ε=2509, and the molecular extinction coefficient of the compound at the wavelength of 546 nm, ε=78.

cholinesterase = cholinesterase (Homo sapiens, UniProt P06276); details: Nescoat ChE V-2 according to the package insert
Experimental: Cholinesterase activity was measured with the above-mentioned samples and unprepared serum. Measurement of cholinesterase activity was carried out using Nescoat ChE V-2 (Alfresa Pharma Coporation) according to the package insert.

NC1CCSC1=O (stereo not drawn) [HTL, homocysteinethiolactone]
stability of substrate in the reaction solution (autolysis, increase in absorbance of reagent-blank) [1]: unstable in the reaction solution
hydrolysis by purified human cholinesterase [2]: not hydrolyzed

B1: Cholinesterase: Human butyrylcholinesterase (348643, Boehringer) dissolved in purified water, 2.0 U/ml solution (protein, UniProt P06276 29-602, looked up)
Cholinesterase: EDDIIIATKNGKVRGMNLTVFGGTVTAFLGIPYAQPPLGRLRFKKPQSLTKWSDIWNATKYANSCCQNIDQSFPGFHGSEMWNPNTDLSEDCLYLNVWIPAPKPKNATVLIWIYGGGFQTGTSSLHVYDGKFLARVERVIVVSMNYRVGALGFLALPGNPEAPGNMGLFDQQLALQWVQKNIAAFGGNPKSVTLFGESAGAASVSLHLLSPGSHSLFTRAILQSGSFNAPWAVTSLYEARNRTLNLAKLTGCSRENETEIIKCLRNKDPQEILLNEAFVVPYGTPLSVNFGPTVDGDFLTDMPDILLELGQFKKTQILVGVNKDEGTAFLVYGAPGFSKDNNSIITRKEFQEGLKIFFPGVSEFGKESILFHYTDWVDDQRPENYREALGDVVGDYNFICPALEFTKKFSEWGNNAFFYYFEHRSSKLPWPEWMGVMHGYEIEFVFGLPLERRDNYTKAEEILSRSIVKRWANFAKYGNPNETQNNSTSWPVFKSTEQKYLTLNTESTRIMTKLRAQQCRFWTSFFPKVLEMTGNIDEAEWEWKAGFHRWNNYMMDWKNQFNDYTSKKESCVGL
activity value of HTL hydrolyzing enzyme, No addition (HTL hydrolyzing enzyme [3]; Reagent 1(A): 0.5 mM CaCl2, pH 7.8, 37° C., no inhibitor): 8
activity value of HTL hydrolyzing enzyme, EDTA.2Na (HTL hydrolyzing enzyme [3]; Reagent 1(B): 2 mM EDTA, pH 7.8, 37° C.): 6
activity value of HTL hydrolyzing enzyme, Physostigmine sulfate (HTL hydrolyzing enzyme [3]; Reagent 1(C): 0.5 mM CaCl2, 0.1 mM physostigmine sulfate, pH 7.8, 37° C.): −1
activity value of HTL hydrolyzing enzyme, Neostigmine bromide (HTL hydrolyzing enzyme [3]; Reagent 1(D): 0.5 mM CaCl2, 0.1 mM neostigmine bromide, pH 7.8, 37° C.): −2
activity value of HTL hydrolyzing enzyme for TBL, No addition (HTL hydrolyzing enzyme [4]; Reagent 1(A): 0.5 mM CaCl2, pH 7.2, 37° C., no inhibitor): 403
activity value of HTL hydrolyzing enzyme for TBL, EDTA.2Na (HTL hydrolyzing enzyme [4]; Reagent 1(B): 2 mM EDTA, pH 7.2, 37° C.): 399
activity value of HTL hydrolyzing enzyme for TBL, Physostigmine sulfate (HTL hydrolyzing enzyme [4]; Reagent 1(C): 0.5 mM CaCl2, 0.1 mM physostigmine sulfate, pH 7.2, 37° C.): 1
activity value of HTL hydrolyzing enzyme for TBL, Neostigmine bromide (HTL hydrolyzing enzyme [4]; Reagent 1(D): 0.5 mM CaCl2, 0.1 mM neostigmine bromide, pH 7.2, 37° C.): 2
Cholinesterase activity (cholinesterase): 15392
Cholinesterase activity (cholinesterase; listed as human cholinesterase): observed
